Data reported in article PMC13254535, “The RecBCD complex interacts directly with the DNA sliding clamp in Escherichia coli” (Nucleic Acids Research, 2026).

What was measured:
Type in all cases: cell-based, Escherichia coli
[1] = system: E. coli BTH101 ∆recB strain (IMR04); assay: UV survival assay (complementation of BTH101 ΔrecB); settings: expressed from pUT18C in BTH101 ΔrecB; UV 5, 15 or 30 J/m^2; CFU; 2 to 3 biological replicates
Experimental: Non-transformed BTH101 and BTH101 ∆recB served as positive and negative controls, respectively. All strains were cultured at 30°C to early exponential phase (OD600 around 0.2, measured by Nanodrop One) before treatment.
For UV exposure, bacterial cultures were serially diluted 10-fold in LB. From each dilution, 5 µl was spotted onto four separate LB agar plates supplemented with IPTG (0.5 mM) and the appropriate antibiotics. Once droplets had dried, one plate was kept unexposed as a control, while the remaining three plates were subjected to UV irradiation at doses of 5, 15, or 30 J/m^2 using an CL-1000 ultraviolet crosslinker (UVP). Plates were incubated overnight at 30°C, after which colony-forming units (CFUs) were counted. Survival at each UV dose was calculated as the ratio of CFUs on the UV-exposed plates to CFUs on the unexposed control plate.

[2] = system: ΔrecA ΔrecB cells; assay: DNA degradation assay after UV ("reckless" DNA degradation); settings: expressed from pUT18C in ΔrecA ΔrecB; UV 50 J/m^2, 3 h; Hoechst 33258 microscopy
Experimental: (§1) IMR13 (ΔrecA) served as a positive control for RecB-mediated DNA degradation, while IMR19 (ΔrecA ΔrecB) was used as a negative control.
(§2) Overnight cultures were diluted to an OD600 of 0.01 into LB medium supplemented with appropriate antibiotics and incubated with shaking at 37°C until they reached an OD600 of 0.2. Each culture was split into two 1 ml aliquots. One aliquot was fixed immediately in ethanol (50% final concentration) to assess DNA content prior to UV exposure. The second aliquot was pelleted, resuspended in 1× PBS, and exposed to UV light at a dose of 50 J/m^2 (CL-1000 Ultraviolet crosslinker, UVP). […]
(§3) Imaging was performed on a Leica DM6000 B fluorescence microscope equipped with a 100× oil immersion objective (Leica HCX Plan Apochromat 100×, 1.40 NA, PH3 CS), a Leica EL6000 metal-halide illumination system, and a Hamamatsu C9100-14 EM-CCD camera. For each sample, six fields of view were acquired, each including both phase-contrast and fluorescence channels. Fluorescence imaging was conducted using a narrow band-pass filter set optimized for CFP (Excitation: 426–446 nm; Emission: 460–500 nm; exposure time: 30 ms). All imaging parameters—including exposure time, illumination intensity, and gain—were kept constant across all strains, treatments, and replicates to ensure quantitative comparability and minimize experimental bias. […]

[3] = system: ΔrecA ΔrecB cells; assay: Basal DNA content without UV; settings: expressed from pUT18C in ΔrecA ΔrecB; unchallenged; relative to ΔrecA ΔrecB cells
Experimental: as §1, §2, §3

B1: RecB: wild type RecB subunit of the E. coli RecBCD complex (T18 fusion, his-tagged or HaloTag according to test) (protein)
chain: MSDVAETLDPLRLPLQGERLIEASAGTGKTFTIAALYLRLLLGLGGSAAFPRPLTVEELLVVTFTEAATAELRGRIRSNIHELRIACLRETTDNPLYERLLEEIDDKAQAAQWLLLAERQMDEAAVFTIHGFCQRMLNLNAFESGMLFEQQLIEDESLLRYQACADFWRRHCYPLPREIAQVVFETWKGPQALLRDINRYLQGEAPVIKAPPPDDETLASRHAQIVARIDTVKQQWRDAVGELDALIESSGIDRRKFNRSNQAKWIDKISAWAEEETNSYQLPESLEKFSQRFLEDRTKAGGETPRHPLFEAIDQLLAEPLSIRDLVITRALAEIRETVAREKRRRGELGFDDMLSRLDSALRSESGEVLAAAIRTRFPVAMIDEFQDTDPQQYRIFRRIWHHQPETALLLIGDPKQAIYAFRGADIFTYMKARSEVHAHYTLDTNWRSAPGMVNSVNKLFSQTDDAFMFREIPFIPVKSAGKNQALRFVFKGETQPAMKMWLMEGESCGVGDYQSTMAQVCAAQIRDWLQAGQRGEALLMNGDDARPVRASDISVLVRSRQEAAQVRDALTLLEIPSVYLSNRDSVFETLEAQEMLWLLQAVMTPERENTLRSALATSMMGLNALDIETLNNDEHAWDVVVEEFDGYRQIWRKRGVMPMLRALMSARNIAENLLATAGGERRLTDILHISELLQEAGTQLESEHALVRWLSQHILEPDSNASSQQMRLESDKHLVQIVTIHKSKGLEYPLVWLPFITNFRVQEQAFYHDRHSFEAVLDLNAAPESVDLAEAERLAEDLRLLYVALTRSVWHCSLGVAPLVRRRGDKKGDTDVHQSALGRLLQKGEPQDAAGLRTCIEALCDDDIAWQTAQTGDNQPWQVNDVSTAELNAKTLQRLPGDNWRVTSYSGLQQRGHGIAQDLMPRLDVDAAGVASVVEEPTLTPHQFPRGASPGTFLHSLFEDLDFTQPVDPNWVREKLELGGFESQWEPVLTEWITAVLQAPLNETGVSLSQLSARNKQVEMEFYLPISEPLIASQLDTLIRQFDPLSAGCPPLEFMQVRGMLKGFIDLVFRHEGRYYLLDYKSNWLGEDSSAYTQQAMAAAMQAHRYDLQYQLYTLALHRYLRHRIADYDYEHHFGGVIYLFLRGVDKEHPQQGIYTTRPNAGLIALMDEMFAGMTLEEA
modifications: left off: T18 (Bordetella pertussis CyaA fragment), N-terminal, kept
With B1 the “survival after UV” value [1] was “fully restores ΔrecB strain survival to the wild-type strain (BTH101) level”, the “reckless DNA degradation after UV” value [2] was “restored the reckless degradation phenotype, comparable to that of the ΔrecA strain” and the basal degradation [3] was about 50%.
